Test results as given in paper PMC11403483 (The Journal of Biological Chemistry, 2024).

Legend:
[1] = target: native PSG1 (human (endogenous in serum of pregnant …, UniProt P11464 35-419)); assay: SPR
[2] = target: recombinant PSG1 (pregnancy-specific glycoprotein 1) (human, UniProt P11464 35-419, complex N-linked glycans); assay: SPR
Chain of recombinant PSG1 (pregnancy-specific glycoprotein 1) (P11464 35-419): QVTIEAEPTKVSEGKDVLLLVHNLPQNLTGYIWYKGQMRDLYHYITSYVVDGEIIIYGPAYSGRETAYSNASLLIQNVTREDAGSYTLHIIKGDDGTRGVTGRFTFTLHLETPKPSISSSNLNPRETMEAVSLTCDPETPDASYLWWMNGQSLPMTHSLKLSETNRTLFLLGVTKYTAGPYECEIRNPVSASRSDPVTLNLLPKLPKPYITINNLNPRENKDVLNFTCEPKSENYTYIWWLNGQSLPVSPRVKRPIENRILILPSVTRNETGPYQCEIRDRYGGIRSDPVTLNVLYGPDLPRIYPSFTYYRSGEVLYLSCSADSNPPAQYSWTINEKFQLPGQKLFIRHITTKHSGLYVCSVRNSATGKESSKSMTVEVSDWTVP

Chain of native PSG1 (human (P11464 35-419): as above

Kd [1]: 40.3 nM
koff [1]: 0.0016 s⁻¹
kon [1]: 39000 M⁻¹ s⁻¹
Kd [2]: 21.6 nM
koff [2]: 0.00156 s⁻¹
B1: recombinant human galectin 9 (natural protein, UniProt O00182-2 1-323, looked up)
chain: MAFSGSQAPYLSPAVPFSGTIQGGLQDGLQITVNGTVLSSSGTRFAVNFQTGFSGNDIAFHFNPRFEDGGYVVCNTRQNGSWGPEERKTHMPFQKGMPFDLCFLVQSSDFKVMVNGILFVQYFHRVPFHRVDTISVNGSVQLSYISFQPPGVWPANPAPITQTVIHTVQSAPGQMFSTPAIPPMMYPHPAYPMPFITTILGGLYPSKSILLSGTVLPSAQRFHINLCSGNHIAFHLNPRFDENAVVRNTQIDNSWGSEERSLPRKMPFVRGQSFSVWILCEAHCLKVAVDGQHLFEYYHRLRNLPTINRLEVGGDIQLTHVQT
